The record followed here is article PMC4072508, “Genome-Wide Prediction and Validation of Peptides That Bind Human Prosurvival Bcl-2 Proteins” (PLoS Computational Biology, 2014).

In experiment [1] the target is Bcl-2, P10415. Nature of the experiment: peptide SPOT array, c-Myc-tagged receptor at 1 uM or 100 nM, anti-c-Myc-Cy3.
The target of experiment [2] is T1, Bcl-w, Q92843.
T1 chain: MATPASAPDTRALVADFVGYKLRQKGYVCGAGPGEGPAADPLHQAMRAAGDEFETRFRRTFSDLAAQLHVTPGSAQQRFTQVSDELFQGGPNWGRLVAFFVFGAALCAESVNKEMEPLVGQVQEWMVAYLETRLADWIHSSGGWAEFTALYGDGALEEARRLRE
Described as above.

Experiment [3] has as its target Bcl-xL, Q07817. Described as above.
The target in experiment [4] is T2, Bfl-1, Q16548.
T2 chain: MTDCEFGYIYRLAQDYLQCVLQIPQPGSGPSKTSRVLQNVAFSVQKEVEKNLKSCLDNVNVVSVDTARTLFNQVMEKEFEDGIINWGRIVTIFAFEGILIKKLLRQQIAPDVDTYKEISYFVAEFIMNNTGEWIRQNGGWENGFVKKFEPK
The description is as above.

The target of experiment [5] is T3, Mcl-1, Q07820.
T3 chain: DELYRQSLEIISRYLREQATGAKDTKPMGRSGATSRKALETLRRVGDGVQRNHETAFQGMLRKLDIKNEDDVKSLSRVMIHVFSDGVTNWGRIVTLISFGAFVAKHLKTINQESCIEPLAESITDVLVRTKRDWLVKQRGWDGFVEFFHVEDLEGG
The description is as above.

Experiment [6] deals with T4, Bcl-2, P10415.
T4 chain: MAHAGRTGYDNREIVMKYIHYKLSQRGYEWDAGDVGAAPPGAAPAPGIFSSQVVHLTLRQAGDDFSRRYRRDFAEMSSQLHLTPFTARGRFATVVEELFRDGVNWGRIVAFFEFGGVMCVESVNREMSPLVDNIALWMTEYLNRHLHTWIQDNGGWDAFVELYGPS
Nature of the experiment: fluorescence polarisation, direct titration of receptor into 10 nM labelled peptide.

Experiment [7] concerns the target T1, Bcl-w, Q92843. The description is as above.
Experiment [8] addresses T2, Bfl-1, Q16548. The experiment is described as above.
Experiment [9] has as its target T3, Mcl-1, Q07820. The description is as above.

As usually defined, the Kd is the constant that tells how readily two partners part at equilibrium. A high value points to weaker binding.

Chain of Bcl-xL, Q07817 (Q07817 1-209): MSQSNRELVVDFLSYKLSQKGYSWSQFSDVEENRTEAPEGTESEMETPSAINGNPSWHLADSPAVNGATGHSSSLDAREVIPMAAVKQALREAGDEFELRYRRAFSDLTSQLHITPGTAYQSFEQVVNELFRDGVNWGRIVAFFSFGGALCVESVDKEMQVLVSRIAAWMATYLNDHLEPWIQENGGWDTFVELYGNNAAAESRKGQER

Take SVGGRGISSKLDSLADELKFVPIIGI [SACS]: the SPOT signal as a fraction of Bim BH3's signal on the same receptor and array in experiment [1] was 0.01; in experiment [2], 0.02; in experiment [3], 0.03; in [4], 0.02; in experiment [5] it was 0.02.
Consider VAGYRESAAFLLRSADELENLILQQN [NOL4], for which the SPOT signal as a fraction of Bim BH3's signal on the same receptor and array in [1] stood at 0.01; in experiment [2], 0.03; in experiment [3] it was 0.04; in experiment [4] it was 0.02; in experiment [5], 0.04.
As for LRGSGAWGLLLRRVGDDVLVHLLARC [TERT], the SPOT signal as a fraction of Bim BH3's signal on the same receptor and array in experiment [1] came to 0.03; in [2], 0.12; in [3], 0.32; in experiment [4], 0.19; in experiment [5], 0.14. Further, the Kd in experiment [6] was 49 nM; in [7], 992 nM; in experiment [8], 99 nM; in experiment [9], 69 nM.
ADLYEEAAENLHQLSDKLPAPGRAMV [MTBP]: the SPOT signal as a fraction of Bim BH3's signal on the same receptor and array stood at 0.01 in [1]; 0.02 in experiment [2]; 0.02 in experiment [3]; 0.02 in [4]; 0.02 in experiment [5].
KYDPSKYCHNLKKIGEDFSNTIPISS [NOL8]: the SPOT signal as a fraction of Bim BH3's signal on the same receptor and array in [1] was determined as 0.02; in [2], 0.05; in [3], 0.57; in experiment [4], 0.05; in experiment [5] it was 0.03.
Consider IKKSVTKGEMLKIVGKRFREHFPEIL [MAGEB2], for which the SPOT signal as a fraction of Bim BH3's signal on the same receptor and array in experiment [1] was determined as 0.15; in experiment [2] it was 0.59; in [3], 0.52; in [4], 0.45; in experiment [5] it was 0.27.
The like results for LGRTGQVCLFLKRGADQHALDQEQRD [ACAP3] were, in that order, 0.06, 0.11, 0.41, 0.16 and 0.08.
Regarding SATHDEAVQVLKKTGKEVVLEVKYMK [SNTA1], the SPOT signal as a fraction of Bim BH3's signal on the same receptor and array was 0.02 in experiment [1]; 0.08 in experiment [2]; 0.15 in experiment [3]; 0.05 in experiment [4]; 0.06 in experiment [5].
The like results for FMEKLDNGALLCQLAETMQEKFKESM [GAS2] were, in that order, 0.01, 0.02, 0.03, 0.02 and 0.02.
On to LQLHRVLPPDLKSLGDQYVKDEFRRH [ACN9], for which the SPOT signal as a fraction of Bim BH3's signal on the same receptor and array came out at 0.05 in [1]; 0.14 in [2]; 0.28 in experiment [3]; 0.15 in experiment [4]; 0.1 in experiment [5].
The like results for DNHKKKTVKMLEYLGKDVLHGVFNYL [CASP5] were, in that order, 0.05, 0.21, 0.28, 0.19 and 0.11.
Consider PEDLQDVGWFLHKLSQQILKKEKEKK [TLR5], for which the SPOT signal as a fraction of Bim BH3's signal on the same receptor and array came to 0.07 in experiment [1]; 0.3 in experiment [2]; 0.1 in experiment [3]; 0.25 in experiment [4]; 0.3 in experiment [5].
KEFLALASSSLLKIGQETDKTTTRNR [NCKAP1]: the SPOT signal as a fraction of Bim BH3's signal on the same receptor and array in experiment [1] amounted to 0.03; in experiment [2], 0.26; in [3], 0.26; in experiment [4], 0.23; in experiment [5], 0.12.
KIETTPESRYLAQIGDSVSLTCSTTG [VCAM1]: the SPOT signal as a fraction of Bim BH3's signal on the same receptor and array in [4] is 0.03. The Kd in experiment [6] is above 3040 nM; in experiment [7], above 4350 nM; in [8], above 3370 nM.
As for GDRAGGRSWCLRRVGMSAGWLLLEDG [RNF8], the SPOT signal as a fraction of Bim BH3's signal on the same receptor and array in experiment [1] turned out to be 0.04; in experiment [2], 0.07; in [3] it was 0.12; in experiment [4], 0.13; in experiment [5], 0.06.
SWFIQSLCAMLKQYADKLEFMHILTR [CASP3]: the SPOT signal as a fraction of Bim BH3's signal on the same receptor and array in experiment [4] is 0.25. Also, the Kd in experiment [6] amounted to 264 nM; in [7], 64 nM; in experiment [8], 43 nM.
Turning to DLTDKLVSFYLETYGAELTANVLRDM [PYCARD], the SPOT signal as a fraction of Bim BH3's signal on the same receptor and array in experiment [1] came out at 0.01; in experiment [2], 0.03; in experiment [3] it was 0.04; in experiment [4], 0.02; in experiment [5], 0.07.
Turning to DAIIQMIVELLKRVGDQWEEEQSLAS [c6orf222], the Kd turned out to be 0.3 nM in experiment [6], 13 nM in experiment [7], 1 nM in experiment [8] and 23 nM in experiment [9].
